Measured values as given in the supplement of paper PMC12042874.
± gives the uncertainty stated by the source.

Assay: amyloid nucleation score (Sup35N fusion, yeast selection) (log enrichment); library NNK1; higher = more nucleation; inactive = no reads after selection
Outline: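 The nucleation score equals the log enrichment of output over input reads from DiMSum, centred on the mode score of non-aggregating sequences. It was computed only for sequences with 100 or more input reads. The reads came from Illumina sequencing of plasmid inserts from psi-negative yeast expressing Sup35N fused to peptides of 20 random codons, induced with 100 μM copper sulfate for 24 hours and grown 7 days at 30°C without adenine and uracil.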

| Substance | amyloid nucleation score |
| --- | --- |
| LVVCAVVGSDLLWL | 0.848 ± 0.72 |
| LVVFATSVGSGGFKVWGHPG | 0.041 ± 0.45 |
| LVVIVTPWKYSEP | 6.58 ± 0.086 |
| LVVSWKLVPSSSTYCGTMSL | inactive |
| LVWGFFSHRM | 2.37 ± 0.14 |
| LVYGKPVNHAEGSDDSTHNG | 0.205 ± 0.6 |
| LWLIVEDSVYFVGMQGHIFN | -0.381 ± 0.39 |
| LWLLHGFDWWKCIYLPGRFL | 0.307 ± 0.97 |
| LWLLYVIECHLGCYRTVLMG | -0.385 ± 0.93 |
| LWMFRFNYYDVLPCGMPGLC | 0.694 ± 0.66 |
| LWSLDSDSCKVLGDSGCGFF | 0.133 ± 0.34 |
| LWSTMICLVFMYPIILVNFT | 1.64 ± 0.36 |
| LWVVPLE | -0.643 ± 1.9 |
| LWYSFNVHTVHYYQCSDIYS | -0.142 ± 0.26 |
| LYETMTCFWMRLWSFCGSPA | -0.033 ± 0.69 |
| LYFGNTGKGNFRQVSRLKHS | 0.116 ± 0.73 |
| LYFITTM | 1.18 ± 0.59 |
| LYGFLICLCDSYVRGH | 0.213 ± 0.49 |
| LYGNT | 1.37 ± 0.38 |
| LYIRSIACGSSLLFLAVLNC | -0.856 ± 1.1 |
| LYITVIVHNWVLGWKRVLLE | 1.64 ± 0.71 |
| LYLDIWYCQIKVTFIGP | inactive |
| LYLNADLYYE | 0.005 ± 0.7 |
| LYNSGSTLI | 0.342 ± 0.61 |
| LYNTITRDTTPHGVEN | -1.84 ± 2.7 |

| Substance | amyloid nucleation score |
| --- | --- |
| LYRAAEYSLRILRLKATYPA | -0.134 ± 0.89 |
| LYSAGRCYARSCVKL | 0.829 ± 0.27 |
| LYVTLV | 2.23 ± 0.17 |
| LYWNVVN | -0.578 ± 0.5 |
| MALLRLDIITFRNESCSEPN | -0.046 ± 0.26 |
| MALMYLMVTRVDLALSL | 0.072 ± 0.34 |
| MASRHKEWRCVMYEHGLRAC | 0.58 ± 1.2 |
| MAVERLGSQVERDIRGWWRV | 0.063 ± 0.59 |
| MCCCLDDEGDHLNWFKRLRC | 1.52 ± 0.49 |
| MCDCLPPCDSGWNFFEWGWE | -0.131 ± 0.69 |
| MCDYFYNIVFVKCCALWCLD | 4.01 ± 0.069 |
| MCTLDLD | 0.824 ± 0.54 |
| MDTVFSFYVIIPVQFSCVAL | 3 ± 0.13 |
| MDWNQGVAGATMIYLCFNNN | 7.881 ± 0.064 |
| MEFISFTWLKYSYMYSDVFS | inactive |
| MERDEFKFLGERLGWLSCWR | 1.04 ± 0.57 |
| MEVISRSVLSSLSWFGTVEE | 0.598 ± 0.5 |
| MFCFKGHQSRDLRTFDYIW | 0.1 ± 0.27 |
| MFCLALECEVHLGMHYYNHA | 0.906 ± 0.2 |
| MFGQWMAPHQTRFGSGQFGW | -0.038 ± 0.38 |
| MFRCFSDTKSNRTFCFMHTC | -0.143 ± 0.56 |
| MFSYDFGMCGFYN | 0.971 ± 0.29 |
| MGAIFCNGSK | 0.371 ± 0.67 |
| MGCWCLASRDLTKT | -0.485 ± 1 |
| MGFDLSRRTCLYYLVTLSW | 0.014 ± 1.1 |

| Substance | amyloid nucleation score |
| --- | --- |
| MGLQTFVVTRMV | -0.758 ± 0.42 |
| MGMGNVYAIQFCPMILWD | 6.783 ± 0.057 |
| MGNTLITLIVGSGAL | 3.44 ± 0.18 |
| MGPMCSQPLHVPSMVSMVTL | 0.735 ± 0.35 |
| MGVVQCAKRQQRLLMQLTVL | 0.054 ± 0.93 |
| MHPFVRSEK | 0.168 ± 0.36 |
| MHRESR | 1.2 ± 0.36 |
| MHWFRVN | 0.324 ± 0.3 |
| MICAQSVS | 0.991 ± 0.24 |
| MICMD | -0.27 ± 0.3 |
| MIDRRKSLVEGRGRNCVSGC | -0.646 ± 1.1 |
| MIKYYYGSGTLS | -0.429 ± 0.34 |
| MILHLDVSISIVLD | 1.58 ± 0.15 |
| MIRFKQT | -0.651 ± 0.45 |
| MIRQYDCSVFKCRERYFWAF | 0.675 ± 0.85 |
| MISIS | 0.088 ± 0.26 |
| MISMFSLFLIRMIM | -0.052 ± 0.54 |
| MITIRVLEQDHLSLSLALSY | -0.597 ± 0.57 |
| MIVYNMFGMNYYLFILDG | 7.508 ± 0.048 |
| MKAGFHYYLVMLVRKE | 0.265 ± 0.31 |
| MKFFRRFYREYF | -0.431 ± 1 |
| MKLMKPGTLSSWCFFDSSGV | 0.016 ± 0.51 |
| MKMNDYMGVRDWVHLIDVCS | inactive |
| MKSCASDPVCCPQTTRSTSL | 0.742 ± 0.49 |
| MKTMRKW | inactive |

| Substance | amyloid nucleation score |
| --- | --- |
| MKVRQDRKPYWVAESAMCVC | -0.261 ± 0.59 |
| MLEVKPLTCMVSPIYDFMPG | -0.134 ± 0.41 |
| MLGSYLHVDSGNCTKVLRTV | 0.326 ± 0.41 |
| MLISSILTYIKVSGYCPGCT | 0.347 ± 0.52 |
| MLLIRNFQFTTLFVCHFSAE | -0.038 ± 0.16 |
| MLLWSVSLNKKKTLKECRRQ | 1.16 ± 0.67 |
| MLNINVTYGFGDLREWNRIF | 1.16 ± 0.13 |
| MLRMQKIGLFSLGMSC | -0.838 ± 0.47 |
| MLSGSVAESKNLIQLCAFFM | 6.704 ± 0.047 |
| MLVNSM | 0.497 ± 0.49 |
| MLYDFVDIRECNDILPARGG | 0.043 ± 0.35 |
| MMCGNLY | 0.625 ± 0.7 |
| MMLRLRT | inactive |
| MMRGTLC | 0.458 ± 0.41 |
| MMRTWGLFRVGRWESWRPVR | 0.26 ± 0.78 |
| MMVLKFGMLVLSGDLAPATS | 0.854 ± 0.72 |
| MNASITFSVLWVACETKCRV | 3.42 ± 0.14 |
| MNMICSFL | -1.39 ± 1.4 |
| MPAWFILGDVVL | 1.2 ± 0.35 |
| MPDFSWA | -0.115 ± 1.2 |
| MPNSPQS | -0.404 ± 0.3 |
| MQGDRQDGLYNKGDYPQFIF | -0.267 ± 0.39 |
| MQGFHSW | inactive |
| MQTLPIR | -0.519 ± 0.46 |
| MREGFTLFVDKDCNAGTYTW | inactive |

| Substance | amyloid nucleation score |
| --- | --- |
| MRGFHSQRHSIAECVAIQKG | 0.359 ± 0.37 |
| MRGTSEFYLVRGRYTCISRG | -0.292 ± 0.45 |
| MRLLIGEKIMWSLRCCSDKG | -0.263 ± 0.29 |
| MRLWLIWYISVMLTQNPRLW | 1.22 ± 0.46 |
| MRPPGNPGWWVRRKARWDPG | -0.506 ± 1 |
| MRSLSVLFGIRTCLTVQWSK | 0.276 ± 0.66 |
| MRWHINATLNGRLGAGLILV | -0.526 ± 0.7 |
| MRWSIFRSTWFCAYSSLVSS | 0.131 ± 0.5 |
| MRYMCVRY | 0.676 ± 0.46 |
| MSDLLSVVN | 0.142 ± 0.81 |
| MSEENSTNIIYSIVPKSL | inactive |
| MSGCLDDNANC | -0.382 ± 0.35 |
| MSISRALLGSSFMFGLVISA | -0.14 ± 0.83 |
| MSLSFAPLAIYPDNIVTDVI | -0.329 ± 0.7 |
| MSPLYNDFWYSCRIYKGEVM | 0.606 ± 0.55 |
| MSPWASNHLW | inactive |
| MSSIKQY | -1.07 ± 2.4 |
| MSSVVLANFEGPAHELATGV | -0.072 ± 0.58 |
| MSVLAIMHLGPGHFAAAYY | 0.186 ± 0.4 |
| MSVLALVPGYLSA | -0.088 ± 0.46 |
| MSVMLIS | 0.126 ± 0.44 |
| MSWNYCNDM | -0.045 ± 0.22 |
| MTAIFSRSSQNFFVGW | 7.154 ± 0.066 |
| MTCDVSKMCVSLRVVTSNGG | 1.27 ± 0.31 |
| MTDMVVSCCMPAEVQRRSGA | 0.009 ± 1.1 |

| Substance | amyloid nucleation score |
| --- | --- |
| MTVCM | 0.125 ± 1.4 |
| MTVKSAPK | 0.258 ± 0.55 |
| MTVYLITNRHLR | 0.905 ± 0.64 |
| MTWNNWCSMRLACIS | 3.9 ± 0.074 |
| MVAEIYQAFWVC | -0.349 ± 1.2 |
| MVDFNSRSKYSVYLSHRGKF | 1.7 ± 0.11 |
| MVFSLSCFKSFTCYTYMCTA | 7.15 ± 0.055 |
| MVGCTYVCLADLFCKLLLMS | -0.015 ± 0.41 |
| MVKYYNTQHDGVSFIEIRLL | 0.527 ± 0.33 |
| MVNILIK | 0.462 ± 0.49 |
| MVTCGYKDFK | -1.7 ± 1.5 |
| MVTTWVHGYVWRANGQTLFR | 1.28 ± 0.7 |
| MVVFMYVST | 0.289 ± 0.39 |
| MVVLRFAKCDSCMTSMAKIL | -0.045 ± 0.3 |
| MVVVVRTVLQVMRGR | 0.189 ± 0.76 |
| MWNGMAGMSQAGSCQRCS | -0.287 ± 0.71 |
| MWPRIPLRDPVVWEHRYCGI | -0.391 ± 0.65 |
| MWSGLIDYMEYLLGWLCT | 0.528 ± 1.2 |
| MWTFWFSVCTYLFL | 2.37 ± 0.2 |
| MWWHVSSMQDRDSGDFNGLL | 0.323 ± 0.22 |
| MYFCM | 6.7 ± 0.059 |
| MYFIVCTSWGSVVDRGIH | inactive |
| MYGCFSGGSVFSSYAALFVI | -0.766 ± 0.41 |
| MYLITGKIARNAKTDSPGSN | -0.52 ± 0.68 |
| MYSHFCVYCNFYLSCNSSLI | 7.034 ± 0.05 |

| Substance | amyloid nucleation score |
| --- | --- |
| MYTFN | -0.031 ± 0.19 |
| MYTQGMYQEDSRDGNGW | -0.189 ± 0.25 |
| MYVNSSNYDLWMNFKIVFWA | 1.18 ± 0.25 |
| NAACLVLGNVSSFEYSSQMG | 2.41 ± 0.27 |
| NACGQVLCWYL | 8.816 ± 0.058 |
| NADCAYYDERYRYSSWLYFY | -1.2 ± 1.1 |
| NAFCHAYSI | -1.49 ± 1.2 |
| NAFQRV | 0.6 ± 0.72 |
| NAFSDRLTGCRLRGGMGRTS | -0.526 ± 0.88 |
| NAGMSLRTFSLYSSWLIVPV | 0.179 ± 1 |
| NAIGILRHLTRMFPFD | 0.747 ± 0.44 |
| NAMVDGQGILIHSL | inactive |
| NARPYRPSFILQSL | -0.698 ± 0.54 |
| NARWSGISFQC | -0.115 ± 0.87 |
| NASCFADKPLLCSLTGRVMD | -0.043 ± 0.49 |
| NCDDIYKYMVIVQGSQLFI | -0.211 ± 0.32 |
| NCHSSFYGNDIGGLSHVMCL | 1.89 ± 0.7 |
| NCNIMNFIDTCLCGAMYYFR | 4.12 ± 0.078 |
| NCTRWTLNTDVCSLDRHVPH | -0.5 ± 2.1 |
| NDLAKHLGFTVTF | 0.011 ± 0.28 |
| NDTMWMSSGLSPCVSSPSLG | -0.252 ± 1.4 |
| NDVFEHIITFCILRVYHMFC | -0.577 ± 0.3 |
| NDYYCFHRAIFFDTGMYFSN | -0.009 ± 0.41 |
| NECLWSSFYLIICFLVCYYY | 0.278 ± 0.46 |
| NEVMRFLSTCCMWIIHTSKV | inactive |
